assay: label from the status in PepcDB records

Sequence | protein production
MKKILVHGVKEKTPLGFCDVPRKNLLDFLRDMKSISVPNEPRYKPLRKIHQAASDGDTERLQRMISLGKHSVHDRDFKERTALHFACACGQVEVVSILLRNNCDIDAADMNFITPLMKAVQNWTYECVCILLKHGADPNRKDKNGNTSLHYAVSEDNQTLAKCLLKYSANMEQKNKDGFTPLLLALKENKIEMAKFLVKMGANIHVFDDMRRNTLLYAIRWDSKDMVNLLLDEGIDFFFRDVFGWTALRYAIEGTSKGSREILMNYDEMLRRKNKDGIPEYKFFEDKSLDKHPNNPTSGCTFPKSNENACKFDDELDISKYVLGTCPNNIHGAGEEGDKSETKKAADVQVWTNPTLKSSTKGKVPNLNEVGTMTESHHFIKESDLEIESLVETFSYDNEDKQSMSDDGHFSGTTPKWCQNDTNRKITVQDCMYPNLKSPTEGKIPTRSKAGKMAESAHFIIESDLEIESLEETVSCDSEDKQLLV | failed
MKKIRLSKFIKMIVVILFLISVAASFYFFHVAQVRDDKSFISNGQRKPGNSLYAYDKSFDKLLKQKIEMTNQNIKQVAWYVPAVKKTHKTAVVVHGFANSKENMKAYGWLFHKLGYNVLMPDNIAHGESHGQLIGYGWNDRENIIKWTEMIVDKNPSSQITLFGVSMGGATVMMASGEKLPSQVVNIIEDCGYSSVWDELKFQAKEMYGLPAFPLLYEVSTISKIRAGFSYGQASSVEQLKKNNLPALFIHGDKDNFVPTSMVYDNYKATAGKKELYIVKGAKHAKSFETEPEKYEKRISSFLKKYEK | failed
MKKISVKFNQKQIFFGIIGLLLLGIIGIFAYKLNEYFSEPVIKAKSINLDASPSPKSKIIERLKKDQKIKVLKKNNNTDWWQVEIGSQKGWVASWLIQKKNYNAKNAGRLAEATIVLDPGHGGVDSGTQASNGAMEKTYTLRTALKVYKLLKAKNVHVIMTRHTNKTVALASRPALSNRVKANIYISFHFNSAGEQNAAEGYEVFKYNHNANSFASTIDKQFNNLPLYNRGVSFGNFEVLRDNKRPAILVEMGFMDSDYDFSYIQKSSYQQKVANDVTKSLTSYFN | failed
MKKKFIITFILSLALFAGIFWVANKVLDIMELTSKVEFVGSDLGEGNNIEQRVENELLFLVLGLDSDDFSGATTEQNRTDTMILCKVNFDTGKIDILSIPRDSRVMVNGKLDKINHAHHFGGLKLAMKTTRDFLNLDIDYYVRVNFFSVKDIVDALGGVEVDVPVQVDVAEDNVHLKPGKQVLNGKQALQFARFRAGYKEGDVGRVKAQQILIKALVKELTKAKNIAKIPEILEVVKKTVNTNIPFSTIAKLSLKVNNLSEDKINTQIVPGESAYINNTSYFIPDRSKLNAIVKEMFSDYLLNKSGSSQVDTDKNKNNTNTKNNNNKNNNTNNRNNSNNNKNNNNKNNKNNKNNNR | failed
MKKKILIPVFASVMALSVSSIVNADEVNDSSQNKDDKTNTELNLGEYKEVKYKVAKIKDGVAIKIREEGQVQNIAYSGDEFTVLGTQGEWVKVKVEDGEGWLATRYVDISEGVGYTNADKVNLRKDKSESSEVIEELEKGSSLLVLEDNGDWLKVKDGETEGYVKSSYISDKAPVIEEPQVNPSIDQNVDSTNNNQQNNANTNQQNNNSNVPTANSNAVQAVLNLAYSKQGCPYVWGAEGPNTFDCSGFTQYVYRNAVGKNIPRTSKAQSKYGQTVSKANLQPGDLVFFTTNGSGSVSHVGIYVGGGNMIHSPSTGKTVSVTSINSSYYTARFVTAKRIL | failed
MKKKLGLLAMVVALMAIATGCSETGQPITSKSTGIWNEYFVYPLSQLITYFADLFNSNYGLAIVITTLIIRFALLPLMIKQTKSTKAMQALQPEMVKLKEKYSSKDQATQQKLQQEMMQLYQKNGVNPLAGCLPIFVQMPILFAFYHAIMRTAEIKQHSFLWFDLGHADPFYILPVVAAITTFIQQKLAMAGTAGQNPQMAMMLWLMPIMILIFAINFPAALSLYWVVGNIFGIAQMYFIKGPEIKASKAGKAGGSSK | failed
MKKLAIVIPAYKVDFFETVLFSLAQQTCKDFTVYIGEDCSRDDFKSLIEQYSKQLDIVYRRFEVNFGGHDLVAQWNRCIQLTQNEPWLWLFSDDDIMGPRCVEYFFNTIAIDNGAFDIYHFDVKIVDCENQIVRIPTVYPSVIDSETFYRRKASARLDSFVVEYIFLRDIYNCTGGFQHFDLAWGSDIATWVKIGADKGIKTISGDYVYWRKSKKNITPNMDNKMVLRKLTADIEFTHWINEFFHKSSVYRFTKYAFFRLVVHYSQAISKSQIRLLLDKAVGKNIISFNDAFIINWTYRFIQLAKRVKDVLYFLEHHHHHH | not failed
MKKLDASTAVSLTGMPELERIVESLCTPESYEAVYHQSLHGSPMPSLEALTELMARLRAALFPGYFGASNIVLESMRYHLAANLDSIYRILAEQVRRGGCFACADYATDCQNCESHSQETAMEFMRALPRIRQLLATDVKAAYEGDPAAKSPGETIFCYPSIYAMIHHRIAHELYRLDVPVIPRIISEMAHSRTGIDIHPGATVGEEFFIDHGTGVVIGETCIIGRGCRLYQGVTLGALSFPKDGGGALIKGIPRHPILQDGVTVYAGATILGRVTIGAGAIVGGNVWVTHDVAPGAKVVQQKSSPPAAEDRMVGTKNGTPKA | failed
MKKLIFLTLSIVSFNNYAVDFVYRVDSTPPDVIFRDGFSLLGYNRNFQQFISGRSCSGGSSDSRYIATTSSVNQTYAIARAYYSRSTFKGNLYRYQIRADNNFYSLLPSITYLETQGGHFNAYEKTMMRLQREYVSTLSILPENIQKAVALVYDSATGLVKDGVSTMNASYLGLSTTSNPGVIPFLPEPQTYTQQRIDAFGPLISSCFSIGSVCQSHRGQRADVYNMSFYDARPVIELILSK | failed
MKKLLTKGQIAILVIFSVLIIDQVIKIWIKTHMYWHESIRITDWFYIYFTENNGMAFGMELFGKLFLTTFRIVAVGLIGWYLYKIVKRGLKTGYIICVSLILTGALGNIIDSVFYGVIFNESTHSQIASFMPDGGGYSTWFYGKVVDMFYFPIIDTNWPTWMPFVGGEHFIFFSPIFNFADAAISCGIIALLLFYSKYLNDSYHHSVTKK | failed
MKKLLVIRNDKIGDFMLCFPAFMMLKQSMPNIEITALVPNYTAPLAELCPAIDHLIIDNTDKQDPIAFKQVQQAVQNGQFDAVICFVSSWYNAKLTWQSGIRYRLAPATKLFQFLYNHRLTQRRSQSIKAESEYNLDLARAFLIDHHMMPVEPQLEHHHHHH | not failed
MKKLMITQEAGVATVLIKNPPVNILTIDLINELNAFILSLKDDRETKVVVFKSFHEAFFIAHLDLNVINGTSGGQAASIEFNHMIANIKAMKQLSIAVVDGVARGGGNEFVMACDLAYGTENSAFAQPELYINIPTGGQGAVQFARRLGKGKALQALLTGADFTAQQAETLNIITQFVLKAELDVFLAQLLSVIVGWEIRDIVMYKEIIAASIKDEAVGTELELRYFLERAREEKTQTIIAAFLKHGGQTEREAKDMQGIFVDTAAELSK | failed
MKKLPLVFSGCLLGLAGAGNLILDTLPVLSHLFSLIGLVLWIYFLILHLFNWKETKQELTKPPLLSGMATFPMAGMILSTYVFRVFSYLPLVAQGIWWFSFLLDLTLIAGFTIKFACPGRRVHATPSWTVLYVGIAVAALTYPLVGIIEIAYATLSFGFLLTFYLYPLIYSDLKKHPLPLALLGQEGIYCAPFSLLLASLVRVGGTSLPTWVLIVMILASQSFFFFVLTRLPNILKQGFQPAFSALTFPTIITATSLKMAQGILKLPFLDYLVLAETIICLTILFFVLGAYLIWLRKKV | failed
MKKLSGIIVLLLAGAALYLALKTSPIDPLAWDAPAAPQMTGVLEPNDTLMKAELLGQGQLHGPEDTAVDSQGRVYAGLADGRVVRLDASGKVETFVDTGGRPLGMDFDAAGNLILADAWKGLLRIDPQGKVETLATEADSVPFAFTDDLDIASDGRIYFSDASSKFHQPDYILDLLEARPHGRLLRYDPSTGKTEVLLKDLYFANGVALSANEDFVLVNETYRYRITRYWLKGEKAGQHEVFIDNLPGLPDNLQGDRKGTFWVALPTPRKADADFLHRHPWLKAQLAKLPRMFLPKPTAYGLVIAIDEQGRIVRSLHDTSGHHLRMITSAKPVGDQLYFGSLENDRIGRLAIPLEHHHHHH | not failed
MKKLVLTGAAGRLGSYLREPLTALCDTLVSTDIVDDIGTLYAGETYVKADLAQMDQIAPVLEGADMVVHFGAIVDEKPFEELLGPNFVGSYNIWEAGYKAGVKRIVYASSIHAVGMHLKSDFIGIDAEHRPDTFYGLAKCFTEDLGRMYWDKRGLESVHLRILSCAQVNNTRALGSWLSYPDLIQLVTRAIDTPSVGFSIIYGVSNNDRAPVDNAKASFLGYRPIDNAEVYAAEVLAQAEPVDTTDPGQMCHGGPFAKVDLGQSGLAQMNVVNDKKQT | failed
MKKPSSTPAPRLASLDILRGFDLFLLVFFQPVLWTLAHQLNLPWLNSILFQFDHEVWEGFRFWDLVMPLFLFMTGASMPFSFSKFKDNPDKGPVYRKIIKRFILLFIFGMIVQGNLLGLDPKHLYLYSNTLQAIATGYLIAAIIQLHCNFRWQLIVTALLLLIYWIPMTFLGDFTPEGNFAEKVDRLVLGHFRDGVFWNEDGSWSFSAHYNYTWIWSSLTFGATVMLGAFAGKIMKAGKDNRRKVVQTLLIIGISLIAFSLIWSLQMPIIKRLWTSSMTLFSGGLCFLLMGAFYYRIDYKGHSRGLNWLKIYGMNSITAYILGEVINFRCIAASVSYGLEQYLGGYYQVWLSFANYLIVFLILRIMYRQKIFLKI | failed
MKKQELIHLHGLLAQVQNHYEAESGTEVDHDEYEELGVKPTSIHKSKTDHKAAVFAIADGIASEMADETKEPVSAAADLEHHHHHH | not failed
MKKQSLVATSLLAAFITGACTADTNIQAKPIVSQVKAKKLIKPNVLFIAVDDLRVQYGPYDFDKAITPNIDRLVNQGVAFTQAYSNVPVCGASRASMLTGVRPTINRFVAFESADKVAPWAPSIAKVFSDNGYTTYSLGKIFNNLTDHANDWSEFPWRPEGAKNEDSTSGNKKQASLLSRHDYVTSDGVAMAKKGIKNHPAFEKADVVDDAYKNGKIAKRAISDLKRLKKAGKPFFLAVGLKKPHLPFNAPSKYWDLYDESTIELTKIPLKAKDSPSQSDHNWNELRNYGHDGAMPKKGKMSDEMARKLIHGYHAATSYSDALIGNILTELESLGLEENTIVVLWGDHGWSLGEHTHWAKHSSYDVTNHIPLIIKVPGMTNGEFSKGLVESVDIFPTLTQLAGLPAPSSLQGDSLVPMLKNPQATVNDAVYPRWKNADSIRTPNYMYTEWRNKKNNKVIARMLFDHRVDPRETINVAENFKYAQVVVDLHNQLAAHIAQVEK | failed
MKKSKRKNAQAQEAQETEVLVQEEAEELPEFPEGEPDPDLEDPDLTLEDDLLDLPEEGEGLDLEEEEEDLPIPKISTSDPVRQYLHEIGQVPLLTLEEEVELARKVEEGMEAIKKLSEITGLDPDLIREVVRAKILGSARVRHIPGLKETLDPKTVEEIDQKLKSLPKEHKRYLHIAREGEAARQHLIEANLRLVVSIAKKYTGRGLSFLDLIQEGNQGLIRAVEKFEYKRRFKFSTYATWWIRQAINRAIADQARTIRIPVHMVETINKLSRTARQLQQELGREPTYEEIAEAMGPGWDAKRVEETLKIAQEPVSLETPIGDEKDSFYGDFIPDEHLPSPVDAATQSLLSEELEKALSKLSEREAMVLKLRKGLIDGREHTLEEVGAFFGVTRERIRQIENKALRKLKYHESRTRKLRDFLD | not failed
MKKSNIKTLEQFKDQNYGKKGTAKRDSLEMGYDTFKIGALIQEARIEKGMTQEELAIKCGTTKSYISRIENNIKEVRISTLQKIVELGFGGQLQLSIKFLEHHHHHH | not failed
MKKTGWGILGAVAAFTGYAYWSTKHLTVTDYEILSDKIPAEWDGATFVQLSDLHSASFGLYNNPLLSIVNELAPDAVFLTGDMIDGDESPFVTMAVVRKLAKEFPVFYVSGNHEGRSAFYEDFKADMEKHHVAVLENERYFLRKDGAAIMVAGVKDPRFVRDDWAEKELPKQVWEEEALKEALDEATANLSPDYFTILLAHRPEFWPLYQAYPVDLVLSGHAHGGQFRLPLTEGLFAPGQGFMPKWTAGLHSAGGKSLIVSRGLGNVTKLPRLFNDPEIIRITLKAKGDARENLEHHHHHH | failed

From a protein production outcome set (Wang et al. 2014)
